Measured values reported in the supplement of paper PMC9112550, “Optimization of the antimicrobial peptide Bac7 by deep mutational scanning” (BMC Biology, 2022).

test system: Escherichia coli TOP10; assay: shrunken log2 fold change of peptide-encoding DNA abundance (4.5 h post-induction vs induction); higher = less antimicrobial activity (less host growth inhibition); details: time post-induction: 4.5 h; library: site-saturation at positions 5, 18, 19, 20
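Also: peptides expressed intracellularly from a pBAD plasmid library in pooled LB shake-flask culture, induced with 0.3% L-arabinose, DNA abundance read by NGS, three biological replicates, DESeq2 with apeglm shrinkage.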

Sequence | shrunken log2 fold change
RRIRDRPPRLPRPRPRPNDWPRP | -0.0967
RRIRQRPPRLPRPRPRPAQNPRP | 0.231
RRIRYRPPRLPRPRPRPQQKPRP | 0.0376
RRIRNRPPRLPRPRPRPWNCPRP | -0.0415
RRIRLRPPRLPRPRPRPEWAPRP | -0.0233
RRIRDRPPRLPRPRPRPQRPPRP | 0.0335
RRIRVRPPRLPRPRPRPSHGPRP | -0.143
RRIRRRPPRLPRPRPRPGEHPRP | 0.291
RRIRGRPPRLPRPRPRPIDMPRP | -0.0207
RRIRSRPPRLPRPRPRPICNPRP | -0.0128
RRIRIRPPRLPRPRPRPPKFPRP | -0.294
RRIRKRPPRLPRPRPRPHGWPRP | 0.865
RRIRNRPPRLPRPRPRPDFHPRP | -0.441
RRIRCRPPRLPRPRPRPWRWPRP | 0.568
RRIRGRPPRLPRPRPRPIFTPRP | 0.284
RRIRERPPRLPRPRPRPANRPRP | 0.111
RRIRFRPPRLPRPRPRPHCYPRP | 0.149
RRIRKRPPRLPRPRPRPYVQPRP | -0.332
RRIRMRPPRLPRPRPRPHLWPRP | 0.374
RRIRDRPPRLPRPRPRPGFFPRP | 0.345

Sequence | shrunken log2 fold change
RRIRFRPPRLPRPRPRPDCFPRP | -0.00719
RRIRARPPRLPRPRPRPVNIPRP | -0.123
RRIRLRPPRLPRPRPRPNLHPRP | -0.347
RRIRCRPPRLPRPRPRPSYPPRP | -0.703
RRIRLRPPRLPRPRPRPAFLPRP | 0.134
RRIRMRPPRLPRPRPRPNWGPRP | 0.448
RRIRDRPPRLPRPRPRPWDIPRP | -0.0043
RRIRVRPPRLPRPRPRPKNTPRP | -0.347
RRIRTRPPRLPRPRPRPGERPRP | 0.113
RRIRQRPPRLPRPRPRPWGMPRP | -0.0405
RRIRIRPPRLPRPRPRPDQNPRP | 0.0467
RRIRCRPPRLPRPRPRPMPWPRP | 0.0515
RRIRARPPRLPRPRPRPRARPRP | 0.911
RRIRVRPPRLPRPRPRPFHLPRP | 0.0337
RRIRMRPPRLPRPRPRPSEYPRP | 0.0493
RRIRARPPRLPRPRPRPERLPRP | 0.23
RRIRTRPPRLPRPRPRPIQDPRP | -0.867
RRIRARPPRLPRPRPRPVPIPRP | 0.0735
RRIRPRPPRLPRPRPRPGKVPRP | -0.0669
RRIRKRPPRLPRPRPRPPPCPRP | 0.585

Sequence | shrunken log2 fold change
RRIRDRPPRLPRPRPRPSEMPRP | -0.0135
RRIRNRPPRLPRPRPRPASFPRP | -0.00784
RRIRCRPPRLPRPRPRPIPQPRP | 0.153
RRIRMRPPRLPRPRPRPTGFPRP | 1.12
RRIRSRPPRLPRPRPRPHTFPRP | -1.36
RRIRHRPPRLPRPRPRPLPEPRP | 0.126
RRIRWRPPRLPRPRPRPLGEPRP | 0.224
RRIRERPPRLPRPRPRPTAFPRP | -0.16
RRIRLRPPRLPRPRPRPEHKPRP | -0.0822
RRIRLRPPRLPRPRPRPDFIPRP | -0.295
RRIRIRPPRLPRPRPRPFIVPRP | -0.105
RRIRQRPPRLPRPRPRPDDTPRP | 0.00151
RRIRRRPPRLPRPRPRPNGSPRP | 0.183
RRIRERPPRLPRPRPRPTQYPRP | -0.304
RRIRHRPPRLPRPRPRPPGPPRP | 0.196
RRIRNRPPRLPRPRPRPCNAPRP | -0.0514
RRIRKRPPRLPRPRPRPKFYPRP | -0.0589
RRIRRRPPRLPRPRPRPRENPRP | 0.135
RRIRCRPPRLPRPRPRPLAYPRP | -0.616
RRIRKRPPRLPRPRPRPLSAPRP | 0.402
